Assays:
Type in all cases: biochemical
Conditions in all cases: 10 μM peptide, FIG. 5
[1] = biological target: T1, ActR-IB (ALK-4) (Homo sapiens, UniProt P36896); assay: In vitro kinase assay (autophosphorylation) of receptor expressed in COS-7 cells
T1 construct: made in house; host or cells: COS-7 cells (transfected, immunoprecipitated)
T1 sequence (P36896 24-505): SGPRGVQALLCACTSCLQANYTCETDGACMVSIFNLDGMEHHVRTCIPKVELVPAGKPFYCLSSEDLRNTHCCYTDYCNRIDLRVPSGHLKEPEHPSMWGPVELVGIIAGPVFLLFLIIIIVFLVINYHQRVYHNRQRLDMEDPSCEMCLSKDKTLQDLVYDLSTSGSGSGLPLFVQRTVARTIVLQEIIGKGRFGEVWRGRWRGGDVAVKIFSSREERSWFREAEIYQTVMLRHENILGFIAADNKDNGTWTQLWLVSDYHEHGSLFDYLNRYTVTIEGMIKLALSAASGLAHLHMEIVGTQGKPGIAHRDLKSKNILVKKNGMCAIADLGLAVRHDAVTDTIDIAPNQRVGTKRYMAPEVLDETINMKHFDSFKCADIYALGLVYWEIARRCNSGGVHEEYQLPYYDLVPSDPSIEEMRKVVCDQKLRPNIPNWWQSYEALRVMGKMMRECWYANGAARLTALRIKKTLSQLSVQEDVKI
Description: (§1) For in vitro kinase assay of type I and type II TGFβ family receptors, p38α and SAPKα2 kinases, COS-7 cells were transfected with the kinase expression vectors or the control empty pcDNA3 vector using the DEAE-dextran method. Proteins were extracted in a lysis buffer (50 mM Tris-HCl, pH 7.5, 50 mM NaCl, 1% NP-40, 10 μg/mL aprotinin, 0.1 mM PMSF). HA-tagged proteins (ALK1 to ALK7, p38R, SAPKR2) were immunoprecipitated with anti-HA antibody (12CA5; Roche); His6-tagged proteins (type II receptors) were precipitated with Ni-NTA agarose (Qiagen). The precipitates were washed in extraction buffer, with 20 mM imidazole for Ni-NTA agarose-precipitated proteins, and two times with kinase buffer (20 mM HEPES, pH 7.4, 10 mM MgCl2, 2 mM MnCl2, 1 mM DTT). The kinase reaction was initiated by addition of 20 μL of kinase buffer containing 0.5 μCi of [γ-32P]ATP, 5.0 μM ATP, and inhibitory peptides at a final concentration of 10 μM. The reaction was performed at 22° C. for 20 min and terminated by addition of SDS-containing sample buffer and boiling for 5 min. The reaction products were analyzed by SDS-PAGE and exposure in a Fuji X2000 phosphorimager. Equal loading was controlled by immunoblotting aliquots of the samples with a HA probe (Y-11; Santa Cruz) or anti-His antibody (Qiagen).
(§2) To evaluate whether the substrate-mimicking peptides affect kinases of type I and type II reptors of the TGFβ family, we studied the influence of peptides on authophosphorylation of all known mammalian type I receptors [ALK-1, ActR-I (ALK-2), BMPR-IA (ALK-3), ActR-IB (ALK-4), TβR-I (ALK-5), BMPR-IB (ALK-6), and ALK-7], TβRII, ActR-II, BMPR-II, p38R, and SAPKR2 (FIG. 5). The kinases were expressed in COS-7 cells and purified by using specific anti-tag antibodies or Ni-NTA agarose, and kinase activity was tested in the presence of peptides.

[2] = biological target: T2, ActR-I (ALK-2) (Homo sapiens, UniProt Q04771); assay: as above
T2 sequence (Q04771 21-509): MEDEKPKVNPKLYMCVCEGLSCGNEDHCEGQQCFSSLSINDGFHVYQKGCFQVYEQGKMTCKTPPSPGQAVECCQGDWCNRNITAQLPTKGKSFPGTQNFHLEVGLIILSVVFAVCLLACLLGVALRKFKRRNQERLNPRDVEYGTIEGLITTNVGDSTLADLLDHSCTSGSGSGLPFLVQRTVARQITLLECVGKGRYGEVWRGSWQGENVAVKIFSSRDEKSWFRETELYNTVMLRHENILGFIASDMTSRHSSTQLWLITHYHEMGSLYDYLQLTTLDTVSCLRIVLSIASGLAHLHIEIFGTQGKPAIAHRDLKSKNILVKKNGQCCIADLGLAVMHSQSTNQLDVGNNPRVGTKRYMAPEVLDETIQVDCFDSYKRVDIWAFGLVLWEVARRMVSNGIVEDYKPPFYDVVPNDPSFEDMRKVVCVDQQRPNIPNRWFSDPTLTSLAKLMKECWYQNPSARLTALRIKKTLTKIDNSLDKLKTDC
Description: as §1, §2

[3] = biological target: T3, TβRII (Homo sapiens, UniProt P37173); assay: as above
T3 construct: made in house; host or cells: COS-7 cells (transfected, Ni-NTA precipitated)
Description: as §1, §2

[4] = biological target: T4, BMPR-IB (ALK-6) (Homo sapiens, UniProt O00238); assay: as above
T4 construct: made in house; host or cells: COS-7 cells (transfected, immunoprecipitated)
Description: as §1, §2

[5] = biological target: T5, ALK-1 (Homo sapiens, UniProt P37023); assay: as above
T5 construct: made in house; host or cells: COS-7 cells (transfected, immunoprecipitated)
Description: as §1, §2

[6] = biological target: T6, ActR-II (Homo sapiens, UniProt P27037); assay: as above
T6 construct: made in house; host or cells: COS-7 cells (transfected, Ni-NTA precipitated)
Description: as §1, §2

[7] = biological target: T7, ALK-7 (Homo sapiens, UniProt Q8NER5); assay: as above
T7 construct: made in house; host or cells: COS-7 cells (transfected, immunoprecipitated)
T7 sequence (Q8NER5 21-493): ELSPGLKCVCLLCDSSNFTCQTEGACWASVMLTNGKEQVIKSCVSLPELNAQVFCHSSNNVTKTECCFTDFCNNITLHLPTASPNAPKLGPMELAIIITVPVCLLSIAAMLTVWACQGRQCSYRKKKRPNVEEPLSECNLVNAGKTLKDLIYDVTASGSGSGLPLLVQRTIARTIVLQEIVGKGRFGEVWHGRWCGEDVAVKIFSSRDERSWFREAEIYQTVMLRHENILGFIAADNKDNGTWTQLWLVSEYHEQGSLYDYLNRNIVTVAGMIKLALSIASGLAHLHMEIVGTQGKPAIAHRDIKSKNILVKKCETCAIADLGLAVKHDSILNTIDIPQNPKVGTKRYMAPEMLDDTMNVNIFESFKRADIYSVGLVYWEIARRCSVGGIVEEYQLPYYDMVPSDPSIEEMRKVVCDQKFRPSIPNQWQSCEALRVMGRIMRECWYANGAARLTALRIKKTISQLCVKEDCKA
Description: as §1, §2

[8] = biological target: SAPKR2 (Homo sapiens, UniProt P45984); assay: In vitro kinase assay of kinase expressed in COS-7 cells
Description: as §1, §2

[9] = biological target: p38R (Homo sapiens, UniProt Q16539); assay: as above
Description: as §1, §2

T4 sequence (O00238 14-502): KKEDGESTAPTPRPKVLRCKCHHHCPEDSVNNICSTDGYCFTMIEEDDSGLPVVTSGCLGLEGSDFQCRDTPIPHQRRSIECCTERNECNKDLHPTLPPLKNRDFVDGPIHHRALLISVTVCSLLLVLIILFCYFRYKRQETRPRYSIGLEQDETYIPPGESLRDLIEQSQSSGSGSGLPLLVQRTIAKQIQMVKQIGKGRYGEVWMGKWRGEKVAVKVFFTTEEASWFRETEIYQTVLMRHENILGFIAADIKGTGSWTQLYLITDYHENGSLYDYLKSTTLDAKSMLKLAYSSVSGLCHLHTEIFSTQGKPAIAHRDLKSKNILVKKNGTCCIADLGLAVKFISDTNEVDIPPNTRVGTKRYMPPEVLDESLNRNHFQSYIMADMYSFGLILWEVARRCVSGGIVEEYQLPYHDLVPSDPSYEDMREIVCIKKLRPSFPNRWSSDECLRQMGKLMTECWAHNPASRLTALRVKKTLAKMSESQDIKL
T6 sequence (P27037 20-513): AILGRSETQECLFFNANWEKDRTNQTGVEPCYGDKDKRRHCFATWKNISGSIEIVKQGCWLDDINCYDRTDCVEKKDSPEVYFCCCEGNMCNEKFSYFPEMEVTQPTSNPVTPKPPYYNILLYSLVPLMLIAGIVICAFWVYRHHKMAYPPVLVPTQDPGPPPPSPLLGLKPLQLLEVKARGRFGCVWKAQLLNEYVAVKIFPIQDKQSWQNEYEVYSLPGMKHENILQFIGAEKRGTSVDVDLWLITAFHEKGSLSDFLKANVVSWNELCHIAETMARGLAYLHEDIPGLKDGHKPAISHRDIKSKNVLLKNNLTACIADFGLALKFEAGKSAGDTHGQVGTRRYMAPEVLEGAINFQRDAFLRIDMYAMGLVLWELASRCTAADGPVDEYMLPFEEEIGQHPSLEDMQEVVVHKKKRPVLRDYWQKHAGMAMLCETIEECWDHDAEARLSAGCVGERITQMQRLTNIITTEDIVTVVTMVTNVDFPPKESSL
p38R, sequence (Q16539 whole entry): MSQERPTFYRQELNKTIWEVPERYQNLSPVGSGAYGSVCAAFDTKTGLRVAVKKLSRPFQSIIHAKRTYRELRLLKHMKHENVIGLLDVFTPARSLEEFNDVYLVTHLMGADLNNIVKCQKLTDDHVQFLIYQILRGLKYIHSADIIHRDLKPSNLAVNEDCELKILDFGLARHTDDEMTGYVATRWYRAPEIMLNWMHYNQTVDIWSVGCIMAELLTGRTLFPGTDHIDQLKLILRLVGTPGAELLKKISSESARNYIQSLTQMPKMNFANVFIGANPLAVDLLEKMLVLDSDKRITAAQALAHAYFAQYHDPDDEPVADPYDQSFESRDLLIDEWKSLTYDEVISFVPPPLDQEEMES
T5 sequence (P37023 22-503, species assumed): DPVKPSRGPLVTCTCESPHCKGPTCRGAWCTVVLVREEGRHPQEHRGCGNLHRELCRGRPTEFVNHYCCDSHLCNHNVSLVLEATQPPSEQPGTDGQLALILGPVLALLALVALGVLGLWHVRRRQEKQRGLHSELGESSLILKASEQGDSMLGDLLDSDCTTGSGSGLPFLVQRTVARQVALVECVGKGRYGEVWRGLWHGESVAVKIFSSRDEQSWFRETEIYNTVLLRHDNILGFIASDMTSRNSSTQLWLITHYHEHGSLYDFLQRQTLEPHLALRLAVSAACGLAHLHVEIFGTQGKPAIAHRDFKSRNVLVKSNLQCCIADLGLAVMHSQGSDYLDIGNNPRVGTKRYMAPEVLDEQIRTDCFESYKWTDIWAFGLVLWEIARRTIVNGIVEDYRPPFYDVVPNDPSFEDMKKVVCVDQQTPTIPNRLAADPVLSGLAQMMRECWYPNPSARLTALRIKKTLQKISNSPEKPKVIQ
T3 sequence (P37173 23-567, species assumed): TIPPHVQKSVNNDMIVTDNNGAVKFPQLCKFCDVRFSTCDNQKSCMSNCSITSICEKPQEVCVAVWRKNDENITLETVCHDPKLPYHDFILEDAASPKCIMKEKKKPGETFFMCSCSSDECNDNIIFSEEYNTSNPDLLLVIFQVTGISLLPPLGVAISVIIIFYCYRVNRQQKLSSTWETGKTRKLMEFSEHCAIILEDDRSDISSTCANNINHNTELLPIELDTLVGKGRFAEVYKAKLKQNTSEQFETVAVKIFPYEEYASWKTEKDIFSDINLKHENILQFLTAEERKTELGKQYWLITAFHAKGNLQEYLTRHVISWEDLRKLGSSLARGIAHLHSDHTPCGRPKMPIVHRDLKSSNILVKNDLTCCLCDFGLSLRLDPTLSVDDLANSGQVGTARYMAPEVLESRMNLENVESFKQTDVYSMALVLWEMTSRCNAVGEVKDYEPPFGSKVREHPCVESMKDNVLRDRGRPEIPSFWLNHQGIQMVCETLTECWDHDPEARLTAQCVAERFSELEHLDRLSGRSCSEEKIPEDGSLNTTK

Row | Effect on ActR-IB (ALK-4) kinase [1] | Effect on ActR-I (ALK-2) kinase [2] | Effect on TβRII kinase [3] | Effect on BMPR-IB (ALK-6) kinase [4] | Effect on ALK-1 kinase [5] | Effect on ActR-II kinase [6] | Effect on ALK-7 kinase [7] | Effect on SAPKR2 kinase [8] | Effect on p38R kinase [9] | Sequence
1 | without any effect | without any effect | without any effect | without any effect | without any effect | without any effect | without any effect | without any effect | without any effect | RQIKIWFQNRRMKWKKTQMGSPSVRCSAMA (listed as Homo sapiens) [antp-Sm2A]
2 | without any effect | without any effect | without any effect | without any effect | without any effect | without any effect | without any effect | without any effect | without any effect | RQIKIWFQNRRMKWKKTQMGSPSVRCSSMS (listed as Homo sapiens) [antp-Sm2S, penetratin fused to the C-terminus of wild-type Smad2]

Reference: patent US20050136043A1, “TGFbeta signaling inhibitors” (Ludwig Institute for Cancer Research, priority 2003, published 2005)
